In US20220064286A1 (Genentech, published 2022):
Residue numbers refer to the chain shown, from its start. Numbers in names are those of the source. Blank lines part the entries; values can stand above or below the binder they belong to.

How the values were obtained:
[1] = target: T1, hTIGIT mutant H76A (human, UniProt Q495A1); assay: SPR (BIACORE), N=2
T1 sequence (TIGIT, looked up): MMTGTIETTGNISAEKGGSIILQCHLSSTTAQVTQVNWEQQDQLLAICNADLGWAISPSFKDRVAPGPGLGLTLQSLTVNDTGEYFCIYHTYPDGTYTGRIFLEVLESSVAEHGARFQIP

[2] = target: T2, hTIGIT mutant H111A (human, UniProt Q495A1); assay: SPR (BIACORE), N=2
T2 sequence (TIGIT, looked up): T1 sequence (TIGIT, looked up) with A55H, H90A

[3] = target: T3, hTIGIT mutant T117A (human, UniProt Q495A1); assay: SPR (BIACORE), N=2
T3 sequence (TIGIT, looked up): T1 sequence (TIGIT, looked up) with A55H, T96A

[4] = target: T4, hTIGIT mutant Q56A (human, UniProt Q495A1); assay: SPR (BIACORE), N=2
T4 sequence (TIGIT, looked up): T1 sequence (TIGIT, looked up) with Q35A, A55H

[5] = target: T5, hTIGIT mutant E60A (human, UniProt Q495A1); assay: SPR (BIACORE), N=2
T5 sequence (TIGIT, looked up): T1 sequence (TIGIT, looked up) with E39A, A55H

[6] = target: T6, hTIGIT mutant L65A (human, UniProt Q495A1); assay: SPR (BIACORE), N=2
T6 sequence (TIGIT, looked up): T1 sequence (TIGIT, looked up) with L44A, A55H

[7] = target: T7, hTIGIT mutant I68A (human, UniProt Q495A1); assay: SPR (BIACORE), N=2
T7 sequence (TIGIT, looked up): T1 sequence (TIGIT, looked up) with I47A, A55H

[8] = target: T8, hTIGIT mutant N70A (human, UniProt Q495A1); assay: SPR (BIACORE), N=2
T8 sequence (TIGIT, looked up): T1 sequence (TIGIT, looked up) with N49A, A55H

[9] = target: T1, hTIGIT mutant H76A; assay: SPR (BIACORE) KD normalized to WT, N=2
[10] = target: T2, hTIGIT mutant H111A; assay: SPR (BIACORE) KD normalized to WT, N=2
[11] = target: T6, hTIGIT mutant L65A; assay: SPR (BIACORE) KD normalized to WT, N=2
[12] = target: T9, human TIGIT protein (human, UniProt Q495A1 22-141, limits assumed); assay: SPR, captured mAb
T9 construct: Recombinant protein (Genentech) used in ELISA screening and as SPR analyte; also called TIGIT antigen
T9 sequence: T1 sequence (TIGIT, looked up) with A55H
Text: (§1) To prevent unwanted pyroglutamate formation for clones 4.1A4, 4.1 D3, and 7.4A3 (also referred to as 1A4, 1 D3, and 4A3, respectively) and to resolve the issue of unpaired cysteine residues for clones 4.1A4 and 7.4A3, the following optimized anti-TIGIT antibody variants were generated: 4.1A4.C96S.Q1E, 4.1A4.C96Y.Q1E, 4.1 D3.Q1E, 7.4A3.C96S.Q1E, and 7.4A3.C96Y.Q1E (also referred to as 1A4.C96S.Q1E, 1A4.C96Y.Q1E, 1 D3.Q1E, 4A3.C96S.Q1E, and 4A3.C96Y.Q1E, respectively). As described below in Table 2, the affinities of these five optimized variants for human and cynomolgus monkey (cyno) TIGIT were then determined by Surface Plasmon Resonance (SRP) (BIACORE™ analysis) and compared to that of their respective parental clones.
(§2) Briefly, a series S CM5 biosensor chip was activated with N-ethyl-N′-(3-dimethylaminopropyl)-carbodiimide hydrochloride (EDC) and N-hydroxysuccinimide (NHS) reagents according to the supplier's (GE Healthcare Biosciences, Piscataway, N.J.) instructions, and a human antibody capture kit was applied to couple goat anti-human Fc IgGs in order to achieve approximately 10,000 response units (RU) on each flow cell, followed by blocking un-reacted groups with 1M ethanolamine.
(§3) (flow rate: 30 μl/min) with no regeneration between injections. The sensorgrams were recorded and evaluated by BIAcore™ T200 Evaluation Software (version 2.0) after subtraction of reference cell signal. Association rates (kₒₙ) and dissociation rates (koff) were calculated using a simple one-to-one Langmuir binding model. The equilibrium dissociation constant (KD) was calculated as the ratio koff/kₒₙ.

[13] = target: T10, cynomolgus monkey (cyno) TIGIT protein (cynomolgus monkey, UniProt A0A7N9I9V4 89-209); assay: SPR, captured mAb
T10 sequence (A0A7N9I9V4 entry or part of it): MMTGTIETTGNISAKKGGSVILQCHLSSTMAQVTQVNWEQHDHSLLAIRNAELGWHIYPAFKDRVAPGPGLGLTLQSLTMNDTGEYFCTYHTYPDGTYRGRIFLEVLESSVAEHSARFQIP
Text: as §1, §2, §3

[14] = target: T9, human TIGIT protein; assay: SPR, monovalent affinity
[15] = target: T10, cynomolgus monkey (cyno) TIGIT protein; assay: SPR, monovalent affinity

B3: 4.1D3 (antibody, V domains shown)
VH: QVQLQQSGPGLVKPSQTLSLTCAISGDSVSSNSAAWNWIRQSPSRGLEWLGKTYYRFKWYSDYAVSVKGRITINPDTSKNQFSLQLNSVTPEDTAVFYCTRESTTYDLLAGPFDYWGQGTLVTVSS
VL: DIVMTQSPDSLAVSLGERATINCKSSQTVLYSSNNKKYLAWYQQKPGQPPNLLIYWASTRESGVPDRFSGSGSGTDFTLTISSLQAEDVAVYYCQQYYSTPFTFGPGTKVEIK
notes: OMT rat-derived human antibody; also called 4.1D3.Q1
Kd [12]: 0.43 nM
koff [12]: 0.00164 s⁻¹
kon [12]: 3.84e+06 M⁻¹ s⁻¹
Kd [13]: 3.33 nM
koff [13]: 0.00207 s⁻¹
kon [13]: 621000 M⁻¹ s⁻¹
Kd [14]: 0.61 nM
Kd [15]: 3.4 nM
Kd [1]: 0.7 nM
Kd [2]: 1.9 nM
Kd [3]: 0.7 nM
Kd [4]: 2.7 nM
Kd [5]: 6.1 nM
Kd [6]: 8.8 nM
Kd [7]: 10.5 nM
Kd [8]: 1.7 nM
Binding affinity drop vs. WT [9]: 1.4 fold
Binding affinity drop vs. WT [10]: 3.8 fold
Binding affinity drop vs. WT [11]: 17.6 fold

B4: 4.1D3.Q1E (antibody, V domains shown)
VH: B3 VH with Q1E
VL: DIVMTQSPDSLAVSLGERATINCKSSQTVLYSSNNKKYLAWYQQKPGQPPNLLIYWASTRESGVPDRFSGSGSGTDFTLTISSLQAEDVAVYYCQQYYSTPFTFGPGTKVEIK
Kd [12]: 0.56 nM
koff [12]: 0.00097 s⁻¹
kon [12]: 1.72e+06 M⁻¹ s⁻¹
Kd [13]: 3.22 nM
koff [13]: 0.00154 s⁻¹
kon [13]: 478000 M⁻¹ s⁻¹
Kd [14]: 0.57 nM
Kd [15]: 3.2 nM

Further lines, results first:

Kd [1]: > 500 nM
Kd [2]: 33.3 nM
Kd [3]: 36.4 nM
Kd [4]: 29.5 nM
Kd [5]: 40.3 nM
Kd [6]: 10.6 nM
Kd [7]: 17.1 nM
Kd [8]: 24.3 nM
Binding affinity drop vs. WT [9]: > 11 fold
Binding affinity drop vs. WT [10]: 0.7 fold
Binding affinity drop vs. WT [11]: 0.2 fold
B1: 10A7 (antibody, V domains shown)
VH: EVQLVESGGGLTQPGKSLKLSCEASGFTFSSFTMHWVRQSPGKGLEWVAFIRSGSGIVFYADAVRGRFTISRDNAKNLLFLQMNDLKSEDTAMYYCARRPLGHNTFDSWGQGTLVTVSS
VL: DIVMTQSPSSLAVSPGEKVTMTCKSSQSLYYSGVKENLLAWYQQKPGQSPKLLIYYASIRFTGVPDRFTGSGSGTDYTLTITSVQAEDMGQYFCQQGINNPLTFGDGTKLEIKR

Kd [12]: 2.97 nM
koff [12]: 0.000856 s⁻¹
kon [12]: 288000 M⁻¹ s⁻¹
Kd [13]: 2.01 nM
koff [13]: 0.000556 s⁻¹
kon [13]: 276000 M⁻¹ s⁻¹
Kd [14]: 2.97 nM
Kd [15]: 2.02 nM
Kd [1]: 4.2 nM
Kd [2]: 151 nM
Kd [3]: 3.3 nM
Kd [4]: 23.7 nM
Kd [5]: 4.8 nM
Kd [6]: 3.9 nM
Kd [7]: 4.9 nM
Kd [8]: 10.7 nM
Binding affinity drop vs. WT [9]: 2.3 fold
Binding affinity drop vs. WT [10]: 84 fold
Binding affinity drop vs. WT [11]: 2.2 fold
B2: 7.4A3.C96S.Q1E (antibody, V domains shown)
VH: EVQLVQSGSDLKKPGASVRVSCKASGYTFTSYPMNWVRQAPGHGLEWMGWINTNTGNPTYVQGFTGRFVFSLDTSVNTAYLQISSLKAEDTAVYFCARTGGHTYDSYAFDVWGQGTMVTVSS
VL: DIQLTQSPTFLSASVGDRVTITCRASQVISSSLAWYQQNPGKAPKLLIYAASTLQSGVPSRFSGSGSGTEFTLTISSLQPEDFVTYYCQHLHGYPSNFGQGTKVEIK
notes: also called 7.4A3.Q1E.C96S
